Assay results from paper PMC7913696.
Each block holds one molecule with its values, some of them ahead of it.

Tests used:
PrimPol WT (human) [1] = biological target: T1, PrimPol WT (human) (UniProt Q96LW4)
T1 sequence: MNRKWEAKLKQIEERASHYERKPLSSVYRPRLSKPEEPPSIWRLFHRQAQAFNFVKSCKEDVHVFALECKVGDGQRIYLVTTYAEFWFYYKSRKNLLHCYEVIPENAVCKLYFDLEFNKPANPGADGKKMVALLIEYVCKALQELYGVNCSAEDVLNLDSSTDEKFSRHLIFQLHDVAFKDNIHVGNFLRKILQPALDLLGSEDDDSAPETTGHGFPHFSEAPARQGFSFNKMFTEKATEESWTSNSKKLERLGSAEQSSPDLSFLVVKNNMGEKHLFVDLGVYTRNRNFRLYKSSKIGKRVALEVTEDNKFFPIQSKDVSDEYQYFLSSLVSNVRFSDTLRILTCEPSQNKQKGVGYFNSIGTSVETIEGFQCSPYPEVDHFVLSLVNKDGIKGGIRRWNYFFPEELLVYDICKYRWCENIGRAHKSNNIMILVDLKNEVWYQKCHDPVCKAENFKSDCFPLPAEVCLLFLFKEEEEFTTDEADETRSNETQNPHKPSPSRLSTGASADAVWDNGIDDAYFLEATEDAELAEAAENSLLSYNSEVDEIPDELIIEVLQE

PrimPol WT (human) [2] = biological target: T1, PrimPol WT (human); remark: listed apart in the source

primer extension by 150 nM PrimPol on a 25/70-mer primer/template with increasing FL-PolDIP2 (up to 500 nM): percent of DNA substrate extended >3 nt (PrimPol WT (human) [1]): 46%
filter binding of [α-32P]dCTP (1 μM dCTP, 300 nM primer/template, 600 nM PrimPol and 600 nM FL-PolDIP2, Ca2+, 37°C), against PrimPol alone (PrimPol WT (human) [2]): 3 fold
Molecule: full-length (FL) human PolDIP2 tagged with C-terminal hexa-histidine (from UniProt Q9Y2S7 52-368) (natural protein)

primer extension by 150 nM PrimPol on a 25/70-mer primer/template with increasing T3-PolDIP2 (from 150 nM): percent of DNA substrate extended >3 nt (PrimPol WT (human) [1]): 32%
B1: T3-PolDIP2 (AA 217–368), C-terminal fragment with the ApaG-like domain (domain or fragment)
chain: LRAWQEKNHPWLELSDVHRETTENIRVTVIPFYMGMREAQNSHVYWWRYCIRLENLDSDVVQLRERHWRIFSLSGTLETVRGRGVVGREPVLSKEQPAFQYSSHVSLQASSGHMWGTFRFERPDGSHFDVRIPPFSLESNKDEKTPPSGLHW
